Reference: article PMC12102759

T1: SARS‐CoV‐2 NSP3 SUD‐M domain (1356–1493), tag cleaved, for FP, P0DTD1
T1 chain: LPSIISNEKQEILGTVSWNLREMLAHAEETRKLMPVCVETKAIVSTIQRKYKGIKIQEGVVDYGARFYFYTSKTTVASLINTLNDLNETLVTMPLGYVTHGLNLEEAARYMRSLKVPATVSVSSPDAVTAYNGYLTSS


Biological target: T1, SARS‐CoV‐2 NSP3 SUD‐M domain …
Test: fluorescence polarization (FP)-based affinity measurement
Settings: chain shown with the change;; read off a plot

Row | Binder | ratio to parent [fold]
1 | QFTEEDLMFVLYGVTPY [PRDM14 wt peptide 196-211 H203M] | 5.6
2 | QFTEEELHFVLYGVTPY [PRDM14 wt peptide 196-211 D201E] | 14
